assay: soluble on expression in E. coli; label from the status in PepcDB or PDB records

Sequence	soluble on expression in E. coli
TGVSSFQEILDKGMVFVNRNKGSGTRDLIEELIGNNESIRKNMKGYLWETNTEAGVARAVEQGRADAGITLEYYAIKLGLKYTHINKENYDILISKEFYDSEYGQAFIKNLKGLKDRIKNYPGYSVPDDI	not soluble
TIVKSEIIRKLMDAKKFLLDGYIDEGVKIVLEITKSSTKSEYNWFICNLLESIDCRYMFQVLDKIGSYFDLDKCQNLKSVVECGVINNTLNEHVNKALDILVIQGKRDKLEEIGREILKNNEVSASILVAIANALRRVGDERDATTLLIEACKKGEKEACNAVNTLTVRSVM	soluble
TLTKHEQDILLKELGPHVDTPAHIVETGLGAYHALFTAHPQYISHFSRLEGHTIENVMQSEGIKHYARTLTEAIVHMLKEISNDAEVKKIAAQYGKDHTSRKVTKDEFMSGEPIFTKYFQNLVKDAEGKAAVEKFLKHVFPMMAAEI	soluble
TLWPREVEGGQGKPSHGCRAASKARLEAKPANSPFPSHPSLAHITQFRMMVSLGHLAKGASLDDLIDSCIQSFDADGNLCRSNQLLQVMLTMHRIVISSAELLQKVITLYKDALAKNSPGLCLKICYFVRYWITEFWVMFKMDASLTDTMEEFQELVKAKGEELHCRLIDTTQINARDWSRKLTQRIKSNTSKKRKVSLLFDHLEPEELSEHLTYLEFKSFRRISFSDYQNYLVNSCVKENPTMERSIALCNGISQWVQLMVLSRPTPQLRAEVFIKFIQVAQKLHQLQNFNTLMAVIGGLCHSSISRLKETSSHVPHEINKVLGEMTELLSSSRNYDNYRRAYGECTDFKIPILGVHLKDLISLYEAMPDYLEDGKVNVHKLLALYNHISELVQLQEVAPPLEANKDLVHLLTLSLDLYYTEDEIYELSYAREPRNHRAPPLTPSKPPVVVDWASGVSPKPDPKTISKHVQRMVDSVFKNYDHDQDGYISQEEFEKIAASFPFSFCVMDKDREGLISRDEITAYFMRASSIYSKLGLGFPHNFQETTYLKPTFCDNCAGFLWGVIKQGYRCKDCGMNCHKQCKDLVVFECKKRAKNPVAPTENNTSVGPVSNLCSLGAKDLLHAPEEGPFTFPNGEAVEHGEESKDRTIMLMGVSSQKISLRLKRAVAHKATQTESQPWIGSEGPSGPFVLSSPRKTAQDTLYVLPSPTSPCPSPVLVRKRAFVKWENKDSLIKSKEELRHLRLPTYQELEQEINTLKADNDALKIQLKYAQKKIESLQLEKSNHVLAQMEQGDCS	soluble
TSKATIRDLNDPSQVKTLQEKASKGAGTVVAVIDAGFDKNHEAWRLTDKTKARYQSKEDLEKAKKEHGITYGEWVNDKVAYYHDYSKDGKTAVDQEHGTHVSGILSGNAPSETKEPYRLEGAMPEAQLLLMRVEIVNGLADYARNYAQAIRDAVNLGAKVINMSFGNAALAYANLPDETKKAFDYAKSKGVSIVTSAGNDSSFGGKTRLPLADHPDYGVVGTPAAADSTLTVASYSPDKQLTETATVKTDDHQAKEMPVLSTNRFEPNKAYDYAYANRGMKEDDFKDVKGKIALIERGDIDFKDKIANAKKAGAVGVLIYDNQDKGFPIELPNVDQMPAAFISRKDGLLLKDNSKKTITFNATPKVLPTASDTKLSRFSSWGLTADGNIKPDIAAPGQDILSSVANNKYAKLSGTSMSAPLVAGIMGLLQKQYETQYPDMTPSERLDLAKKVLMSSATALYDEDEKAYFSPRQQGAGAVDAKKASAATMYVTDKDNTSSKVHLNNVSDKFEVTVTVHNKSDKPQELYYQATVQTDKVDGKHFALAPKALYETSWQKITIPANSSKQVTVPIDASRFSKDLLAQMKNGYFLEGFVRFKQDPKKEELMSIPYIGFRGDFGNLSALEKPIYDSKDGSSYYHEANSDAKDQLDGDGLQFYALKNNFTALTTESNPWTIIKAVKEGVENIEDIESSEITETIFAGTFAKQDDDSHYYIHRHANGKPYAAISPNGDGNRDYVQFQGTFLRNAKNLVAEVLDKEGNVVWTSEVTEQVVKNYNNDLASTLGSTRFEKTRWDGKDKDGKVVVNGTYTYRVRYTPISSGAKEQHTDFDVIVDNTTPEVATSATFSTEDRRLTLASKPKTSQPIYRERIAYTYMDEDLPTTEYISPNEDGTFTLPEEAETMEGGTVPLKMSDFTYVVEDMAGNITYTPVTKLLEGHS	soluble
TSKCTIIPGSGFRNDEGKYEIIADKCIEADYPQKDEVAAAAYMNKYVEEVILRAPEQWMWLHKRYKTMQDENEPKGIRYK	not soluble
TSNFFCGEPIDYRGITAHRLVGAEPRPPVSGTRYAKVPGVPDEYKTGYRPANLGRSDPDSDKSLMNIAVKNLQVYQQEPKLDKVDEFIERAAADVLGYLRFLTKGERQANLNFKAAFNTLDLSTSCGPFVPGKKIDHVKDGVMDQVLAKHLYKCWSVANSGKALHHIYACGLKDELRPLDKVKEGKKRLLWGCDVGVAVCAAAVFHNICYKLKMVARFGPIAVGVDMTSRDVDVIINNLTSKASDFLCLDYSKWDSTMSPCVVRLAIDILADCCEQTELTKSVVLTLKSHPMTILDAMIVQTKRGLPSGMPFTSVINSICHWLLWSAAVYKSCAEIGLHCSNLYEDAPFYTYGDDGVYAMTPMMVSLLPAIIENLRDYGLSPTAADKTEFIDVCPLNKISFLKRTFELTDIGWVSKLDKSSILRQLEWSKTTSRHMVIEETYDLAKEERGVQLEELQVAAAAHGQEFFNFVCRELERQQAYTQFSVYSYDAARKILADRKRVVSVVPDDEFVNVME	soluble
TTGNEPPVTQIVDKHRIALALGGGAARGWAHIGVLRALDEAGVKIGMIAGTSIGALVGGCYLAGKLDELEEFARSLTMRRIAGLLDLTIGGGGLFGGMRLTKRMQEHLEGLRVENLEHPFIAVATELRTGHEVWIHQGDLVTALRSSYALPGIFEPVQCNGRTLIDGALVNPVPVSVCRAYEQALVVAVNLNYDLFGRSA	not soluble
TTPAPESNRKYIIAVTACPTGIAHTYMAEDALKKKAKEMGVDIKVETNGSEGIKNRLTAEDIARADGVIVAADKKVEMNRFDGKKLVNRPVSDGIRKTEELINLAISGEAPTFHGSDSAA	not soluble
TVLENGSWLIDGDTPVNKLKYVLSVDSFPGEEQGYYLTIAGLIMYILQRIPKTGDHMEFNGLRYEVVDMDGIRIDKVMVTKVPEISKD	not soluble
TVSRENRAEDSRVAAKGVAFGGGETVRIAAEPSVWSNADAVFLDPFFTSANLYDTLSADEGRGRCRRLAEQAASAHGAGKPVLVRVRNVRHVEAALNAGADILYLGGGLMSDLAVLNEAGSLNIPLVLCKDKHHSAEDWLNAAEYVVSRGNRHLILGESGVLGHTKGHPYRLDVESIVKVRQISHLPVIANITGLWSRDMPQEILYGLAKAAGACGIV	not soluble
VADVVPLDHNNRILVSQGLKRMRSGKMRPGIRALFEVARRDWRKAQPFDMGFALGPRINAAGRLDDMSVGIACLLARDDSEAQELAAQLNNLNIERREIEQSMLQDALNDFPETLPSGQMTLVAYRDDFHQGVVGIV	not soluble
VAGPIAVGCYPALGPTILPSMLYAFTAEYPRASVEFREDTQNRLRTQLEGGELDVAIVYDLDLSPEWQTVPLMTREPMVVLGAEHPLAGVDGPVRLADLAEHPMVLLDAPPSTNHAMDVCREAGFAPRVAYRTANFETARAFVGRGLGWTLLLQRPRVDVTYEGLPVVVKPIAEPKPASVAVVVAWHQEATLSRVARAFIRFVTA	soluble
VARADESLQQVVMAYFGVQFKSEQKAIALKAMQHIVQSFSLDNGPQNHDITHHTDNQGYENYIVVGYWRDPGAYCRWFRSTEVSHWWDSDERLNDGIGYFREIVIPRADQFETLYAFKEDLPGVGAVMDDISDDIQEHGYWGSARERF	not soluble
VDNVLVIIGPTASGKTKLAIEIAKRANGEIISADSMQIYKYMDIGTAKPDEEEKEGIKHYLIDEVTPDEEFSVARFKELALKYIDEILSKGKLPIVAGGTGLYINSLIYNLEFSDTICDWELRKKLEQEAKEKGNEYLHNKLKEIDPKAAEKIHMNNVKRVIRAIEVYTYTKKPISVHQEESRKNPPRHNFILIGITMDREKLYDRINKRVDLMLEKGLVKEVEKLVEMGYDKSTIAMQGLGYKEILSYLRGERSLDEAVEILKRDTRRYAKRQMTWFRKIENVYWINKDEFDSDEKIIKNLKYYLATFGIFL	soluble
VEPVPDTHLRGITCLDHENEKVNMYCVSDDQLICALCKLVGRHRDHQVASLNDRFEKLKQTLEMNLTNLVK	soluble
VEYSKDRLEMEIVMAAERLDITEECIRFSSHNKFFIEELNNSSSGSGRKLNFLLQEQLREANTIASKSQNADISQKVVHIKEELEKVREQLQNIE	not soluble
VGEKITKMKEESHKTKQTKTEDPITKETYQARQRTLLQRDYLLVHIEDLLPKQVFAVSVINDYLVCIQAQGLEPMSDVGLLGKHQFYLRTYHYFV	not soluble
VGPEAYGEASHSHSPASGRYIQQMLDQRCQEIAAELCQSGLRKMCVPSSRIVARNAVGITHQNTLQWRCFDTASLLESNQENNGVNCVDDCGHTIPCPGGVHRQNSNHATRHEILSKLVEEGVQRFCSPYQASANKYCNDKFPGTIARRSKGFGNNVEVAWRCYEKASLLYSVYAECASNCGTTWYCPGGRRGTSTELDKRHYTEEEGIRQAIGSVDSPCSEVEVCLPKDENPPLCLDESGQISRT	soluble
VIVYGDYNNDGNVDALDFAGLKKYIMAADHAYVKNLDVNLDNEVNSTDLAILKKYLLGMVSKLPSN	soluble
VKFLTVNDDILSMPQARNFCASAGGYLADDLGDDKNNFYSSIAANTQFWIGLFKNSDGQFYWDRGQGINPDLLNQPITYWANGEPSNDPTRQCVYFDGRSGDKSKVWTTDTCATPRPFICQKHRYDSDHKPNTIGDA	soluble
VKVQPNDYVFRDLANHNQIFVKDKDPKVYNNPYYIDQVQLKDAQQTDLTSIQASFTTLDGVDKTEILKELKVTDKNQNAIQISDITLDTSKSLLIIKGDFNPKQGHFNISYNGNNVTTRQSWEFKDQLYAYSGNLGAVLNQDGSKVEASLWSPSADSVTMIIYDKDNQNRVVATTPLVKNNKGVWQTILDTKLGIKNYTGYYYLYEIKRGKDKVKILDPYAKSLAEWDSNTVNDDIKTAKAAFVNPSQLGPQNLSFAKIANFKGRQDAVIYEAHVRDFTSDQSLDGKLKNQLGTFAAFSEKLDYLQKLGVTHIQLLPVLSYFYVNEMDKSRSTAYTSSDNNYNWGYDPQSYFALSGMYSEKPKDPSARIAELKQLIHDIHKRGMGVILDVVYNHTAKTYLFEDIEPNYYHFMNEDGSPRESFGGGRLGTTHAMSRRVLVDSIKYLTSEFKVDGFRFDMMGDHDAAAIELAYKEAKAINPNMIMIGEGWRTFQGDQGKPVKPADQDWMKSTDTVGVFSDDIRNSLKSGFPNEGTPAFITGGPQSLQGIFKNIKAQPGNFEADSPGDVVQYIAAHDNLTLHDVIAKSINKDPKVAEEDIHRRLRLGNVMILTSQGTAFIHSGQEYGRTKRLLNPDYMTKVSDDKLPNKATLIEAVKEYPYFIHDSYDSSDAINHFDWAAATDNNKHPISTKTQAYTAGLITLRRSTDAFRKLSKAEIDREVSLITEVGQGDIKEKDLVIAYQTIDSKGDIYAVFVNADSKARNVLLGEKYKHLLKGQVIVDADQAGIKPISTPRGVHFEKDSLLIDPLTAIVIKVGKVAPSPKEELQADYPKTQSFKGSKTVEKVNRIANKTSITPVVSNKTDSYLTNEANLEHHHHHH	soluble
VLLLDVTPLSLGIETLGGVFTRLIPRNTTIPTKKSQIFSTAAAGQTSVEIRVFQGERELVRDNKLIGNFTLAGIPPAPKGVPQIEVTFDIDADGIINVSARDKATNKDSSITVAGSSGLSENEIEQMVNDAEKFKSQDEARKQAIETANKADQLANDTENSLKEFEGKVDKAEAQKVRDQITSLKELVARVQGGEEVNAEELKTKTEELQTSSMKLFEQLYKNDSNNNNNNNGNNAESGETKQ	soluble

Reference: the DeepSol protein solubility set
